Patent US8841421B2, “S100A9 interaction screening method” (Active Biotech, AB, priority 2007, dated 2014)
Each block holds one molecule with its values, some of them ahead of it.

Legend:
[1] = target: T1, S100A9 binding to immobilized RAGE (Homo sapiens, UniProt P06702); test: Biacore competition assay: displacement of S100A9 binding to immobilized RAGE; details: for IC50, displacement of S100A9 binding to RAGE: 200 nM S100A9, log-logit plot, linear regression
T1 construct: made in house; host or cells: E. coli
T1 sequence (P06702 1-114): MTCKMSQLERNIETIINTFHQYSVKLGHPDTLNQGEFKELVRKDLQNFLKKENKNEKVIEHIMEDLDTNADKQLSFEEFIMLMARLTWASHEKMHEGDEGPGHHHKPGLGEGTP
Method: Sensorgrams from top to bottom represent: S100A9 without and with 15.625, 31.25, 62.5, 125, 250, 500 and 1000 μM compound A as competitor and from sample buffer without S100A9 and competitor. In (B), binding data is plotted as an inhibition curve (♦) and the response for S100A9 in the absence of competitor (dotted line). In (C), binding data is plotted after log-logit transformation. […] Arrows in (A) indicate start of the association phase (1), i.e. injection of S100A9±competitor, and dissociation phase (2), where running buffer is pumped over the surface. Injection time, flow rate and regeneration conditions were as in FIG. 1.
Binding analysis was performed using the “surface plasmon resonance” (SPR) technology with a Biacore 3000™ system. This technology allows analysis of an interaction between proteins and small molecules in a real-time and label-free manner. A protein or low-molecular weight compound is injected over a surface (a CM5 sensor chip) with a covalently coupled ligand and the signal produced, expressed as resonance units (RU), is directly proportional to the number and mass of the molecule interacting with the ligand on the surface. Immobilization, regeneration scouting, surface performance tests and binding studies were conducted basically according to the instructions by the manufacturer. Kinetic evaluation of binding data was carried using the BIAevaluation Software Version 3.2 (Biacore AB). Optimization of conditions for immobilization and binding analysis is carried out for each interaction to be studied. […]
Recombinant human RAGE was obtained from R&D Systems (cat. No. 1145-RG) as a fusion protein of the extracellular domain of RAGE, comprising a.a. […] The chimeric protein was expressed in the mouse myleoma cell line NSO as a disulfide-linked homo-dimeric protein with a calculated molecular mass of 61 kDa. […]
Recombinant S100A9, expressed as the full-length sequence of native protein in E. coli was obtained using a four-step purification protocol. […]

human S100A9 = target: T2, human S100A9 (Homo sapiens, UniProt P06702); test: Biacore competition assay: S100A9 binding to immobilized amino-linked Compound A; details: sigmoidal dose-response (variable slope) fit
T2 construct: made in house; host or cells: E. coli
T2 sequence (P06702 1-114): T1 sequence (P06702 1-114)
Method: The anti-S100A9 mAb 43/8 ability to block the binding of human S100A9 to amino-linked Compound A was measured by BIACORE™ direct binding assay. The assay was performed by coating amino-linked Compound A on a CM5 chip using standard amine coupling. S100A9 at 100 nM was injected over immobilized Compound A in the absence or presence of mAb 43/8 for 3 min at a flow rate of 30 μl/min in sample buffer (HBS-P buffer containing 1 mM Ca^2+ and […]) (1; association phase), followed by injection of sample buffer (2; dissociation phase).
Responses at late association phase, obtained after injection of 100 nM S100A9, pre-incubated for at least 1 h at room temperature ±12.5-500 nM monoclonal anti-S100A9 antibody, over immobilized Compound A were plotted versus concentration of anti-S100A9 antibody.
Samples were injected for 3 min at 30 μl/min in HBS-P buffer over amine coupled RAGE,TLR4/MD-2 and Compound A. Binding +/− competitor was calculated as response at lateassociation phase or by fit of sensorgrams to a 1:1 Langmuir model. ICso values were calculated by fitting data to a sigmoidal dose-response (variable slope) model in Graph-Pad Prism.

[2] = target: T3, S100A9 binding to immobilized human TLR4/MD-2 complex (Homo sapiens, UniProt P06702); test: Biacore competition assay: displacement of S100A9 binding to immobilized TLR4/MD-2; details: sigmoidal dose-response (variable slope) fit
T3 construct: made in house; host or cells: E. coli
T3 sequence (P06702 1-114): T1 sequence (P06702 1-114)
Method: Sensograms from top to bottom represent: S100A9 without and with 7.8125, 15.625, 31.25, 62.5, 125, 250, 500 and 1000 μM compound A as competitor. In (B), binding data is plotted as an inhibition curve. […] Arrows in (A) indicate start of the association phase (1), i.e. injection of S100A9±competitor, and dissociation phase (2), where running buffer is pumped over the surface. Injection time, flow rate and regeneration conditions were as in FIG. 1. HBS-P containing 1 mM CaCl2 and 10 μM ZnCl2 (Robinson et al. 2002) was used as running and sample buffer.
Binding analysis was performed using the “surface plasmon resonance” (SPR) technology with a Biacore 3000™ system. This technology allows analysis of an interaction between proteins and small molecules in a real-time and label-free manner. A protein or low-molecular weight compound is injected over a surface (a CM5 sensor chip) with a covalently coupled ligand and the signal produced, expressed as resonance units (RU), is directly proportional to the number and mass of the molecule interacting with the ligand on the surface. […]
(§1) Recombinant S100A9, expressed as the full-length sequence of native protein in E. coli was obtained using a four-step purification protocol. […] Buffer was changed to HBS-P using the Fast Protein Desalting Spin Columns and concentration determined in the BCA protein assay from Pierce with bovine albumin as standard. […]

immobilized RAGE = target: T4, immobilized RAGE (Homo sapiens, UniProt Q15109); test: Binding of S100 proteins to immobilized RAGE (Biacore); details: 200 nM protein
T4 construct: the extracellular domain of RAGE, comprising a.a; 1-344; purchased R&D Systems 1145-RG; host or cells: mouse myeloma cell line NS0
T4 sequence (Q15109 23-344): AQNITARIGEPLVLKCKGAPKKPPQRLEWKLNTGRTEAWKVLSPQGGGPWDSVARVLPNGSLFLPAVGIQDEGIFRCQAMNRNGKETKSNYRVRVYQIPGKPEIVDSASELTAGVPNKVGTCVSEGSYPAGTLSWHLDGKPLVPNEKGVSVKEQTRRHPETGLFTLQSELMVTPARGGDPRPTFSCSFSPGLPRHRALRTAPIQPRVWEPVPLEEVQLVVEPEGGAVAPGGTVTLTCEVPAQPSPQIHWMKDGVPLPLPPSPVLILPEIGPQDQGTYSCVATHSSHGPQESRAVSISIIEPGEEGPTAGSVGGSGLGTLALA
Method: Responses were obtained as Req values after fit of data to a 1:1 binding model or as the signal at late association phase (t˜235 s). Experimental conditions were as in FIG. 1. Signals were not corrected for mass contribution.
In vivo, S100A9 usually forms hetero-dimeric complexes with S100A8.
(§2) Binding analysis was performed using the “surface plasmon resonance” (SPR) technology with a Biacore 3000™ system. This technology allows analysis of an interaction between proteins and small molecules in a real-time and label-free manner. A protein or low-molecular weight compound is injected over a surface (a CM5 sensor chip) with a covalently coupled ligand and the signal produced, expressed as resonance units (RU), is directly proportional to the number and mass of the molecule interacting with the ligand on the surface. Immobilization, regeneration scouting, surface performance tests and binding studies were conducted basically according to the instructions by the manufacturer. Kinetic evaluation of binding data was carried using the BIAevaluation Software Version 3.2 (Biacore AB). Optimization of conditions for immobilization and binding analysis is carried out for each interaction to be studied. A biosensor analysis cycle consists of: (i) injection of S100A9 over the RAGE surface for 3 min (association phase) or (i) injection of S100A9 over the TLR4/MD-2 surfaces, in the absence or presence of 100 ng/mL LPS, for 3 min (association phase); (ii) injection of running buffer for 2.5 min (dissociation phase); (iii) injection of a 30 s pulse of 10 mM glycine-HCl, pH 2.0-2.125 (regeneration phase); and (iv) injection of running buffer for 2 min (stabilization after regeneration) at a flow rate of 30 μl/min.
Recombinant human RAGE was obtained from R&D Systems (cat. No. 1145-RG) as a fusion protein of the extracellular domain of RAGE, comprising a.a. 1-344, and the Fc region of human IgG1 via a peptide linker. The chimeric protein was expressed in the mouse myleoma cell line NSO as a disulfide-linked homo-dimeric protein with a calculated molecular mass of 61 kDa. Prior to covalent coupling to the sensor chip, buffer was changed to a standard Biacore buffer (10 mM Hepes, 0.15 M NaCl, pH 7.4, containing 0.005% v/v Surfactant P20; HBS-P) using Fast Protein Desalting Micro-Spin Columns (Pierce). RAGE was diluted in an immobilization buffer shown to give sufficient pre-concentration and then covalently coupled using the “Aim at immobilization level” function in the Biacore Wizard to obtain various coupling densities. Activity of immobilized RAGE was tested by injecting a specific anti-human RAGE monoclonal antibody over the surface. Due to extensive glycosylation of RAGE relative to that of the Fc domain and a higher mass of the latter, it was also assumed that chimeric RAGE/Fc will be coupled predominantly via the Fc domain and result in a semi-oriented coupling to the sensor chip. HBS-P, with a final concentration of 1 mM CaCl2 and 10 μM ZnCl2, was used as sample and running buffer throughout the study. For regeneration of the surface after each cycle, a pulse of 10 mM glycine-HCl, pH 2.125, was used. To determine optimal zinc concentration for binding of S100A9 protein to RAGE, the interaction was allowed to take place at a fixed calcium concentration (1 mM) and with the zinc concentration titrated from zero to ten μM.

human TLR4/MD-2 = target: T5, human TLR4/MD-2 (Homo sapiens, UniProt O00206+Q9Y6Y9); test: Biacore direct binding of S100A9 to amine-coupled TLR4/MD-2; details: 1:1 Langmuir binding model
T5 construct: human TLR4 (Glu 24-Lys 631), and 10× histidines; human MD-2 (Glu 17-ASN 160), and 10× histidines; human CD33 signal peptide (Met 1-Ala 16) (N); purchased R&D Systems 3146-TN/CF; host or cells: mouse myeloma cell line NS0
T5 sequence (O00206 24-631): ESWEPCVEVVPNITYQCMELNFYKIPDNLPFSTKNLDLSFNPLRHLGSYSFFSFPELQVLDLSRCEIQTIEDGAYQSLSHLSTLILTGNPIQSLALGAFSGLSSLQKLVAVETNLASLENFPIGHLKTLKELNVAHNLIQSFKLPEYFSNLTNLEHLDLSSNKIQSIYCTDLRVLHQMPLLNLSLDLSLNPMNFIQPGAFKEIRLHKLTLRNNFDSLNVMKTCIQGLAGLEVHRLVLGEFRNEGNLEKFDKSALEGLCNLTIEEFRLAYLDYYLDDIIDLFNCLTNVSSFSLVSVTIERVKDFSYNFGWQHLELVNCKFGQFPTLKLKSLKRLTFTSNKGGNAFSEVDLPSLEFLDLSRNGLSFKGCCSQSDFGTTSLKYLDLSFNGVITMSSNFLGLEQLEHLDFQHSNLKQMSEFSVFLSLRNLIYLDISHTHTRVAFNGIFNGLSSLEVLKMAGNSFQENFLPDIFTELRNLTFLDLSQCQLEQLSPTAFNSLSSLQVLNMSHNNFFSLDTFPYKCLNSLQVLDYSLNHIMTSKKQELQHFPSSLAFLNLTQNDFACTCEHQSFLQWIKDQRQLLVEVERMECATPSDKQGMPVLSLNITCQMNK
T5 sequence (Q9Y6Y9 17-160): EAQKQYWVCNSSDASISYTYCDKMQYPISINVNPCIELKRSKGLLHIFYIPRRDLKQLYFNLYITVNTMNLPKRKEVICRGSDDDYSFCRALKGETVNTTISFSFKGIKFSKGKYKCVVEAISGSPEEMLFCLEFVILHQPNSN
Method: The TOLL-like receptor 4 was immobilized on the sensor chip. Binding to S100A9 was detected. […] Sensorgrams from bottom to top represent injection of sample buffer in the absence of S100A9, 100 and 200 nM S100A9 after subtraction of the signal in the reference flow cell. Injection time was 3 min at a flow rate of 30 μL/min and regeneration was performed with a 30 μl pulse of 3 mM EDTA in HBS-P buffer (HBS-EP) for 60 s. Arrows indicate injection of sample (1; association phase), running buffer (2; dissociation phase) and regeneration solution (3). HBS-P containing 1 mM CaCl2 and 10 μM ZnCl2 (Robinson et al. 2002) was used as running and sample buffer. An apparent dissociation constant of […], on- and off-rates of 3.9×10^4 l/Ms and 3.5×10^−4 l/s, and maximal binding at 1.8×10^3 RU were calculated after fitting data to a 1:1 Langmuir binding model (Chi2 6.8).
as §2
Recombinant human TLR4/MD-2 was obtained from R&D Systems (cat. no. 3146-TN/CF) as a non-covalently associated protein of the respective extracellular domains. […]
as §1

Molecule: S100A1: S100 protein, putative RAGE ligand [Compound S100A1]
binding to RAGE (in words) (immobilized RAGE): weak or no binding

Molecule: S100A8/9 hetero-dimer: hetero-dimeric complex of S100A8 and S100A9
binding to RAGE (in words) (immobilized RAGE): significantly lower binding

B1: S100P: S100 protein, putative RAGE ligand (protein, UniProt P25815 1-95, looked up)
Protein S100-P: MTELETAMGMIIDVFSRYSGSEGSTQTLTKGELKVLMEKELPGFLQSGKDKDAVDKLLKDLDANGDAQVDFSEFIVFVAAITSACHKYFEKAGLK
binding to RAGE (in words) (immobilized RAGE): weak or no binding

B2: S100A12: S100 protein, putative RAGE ligand; purified from human granulocytes (protein)
chain: TKLEEHLEGIVNIFHQYSVRKGHFDTLSKGELKQLLTKELANTIKNIKDKAVIDEIFQGLDANQDEQVDFQEFISLVAIALKAAHYHTHKE
binding to RAGE (in words) (immobilized RAGE): weak or no binding

Now from value to molecule:

IC50 ([1]; sigmoidal dose-response (variable slope) fit): 399 µM
IC50 (human S100A9): 873 µM
IC50 [2]: 458 µM
Molecule: COc1ccc(C2CNC(=O)C2)cc1OC1CCCC1 (racemic) [Rolipram, (+/−)-4-(3-cyclopentyloxy-4-methoxyphenyl)-2-pyrrolidone]

binding to RAGE relative to next group of RAGE binders (AnxII, S100A12, S100A8/9) (immobilized RAGE): more than 10 fold
maximal binding (human TLR4/MD-2): 1.8×10^3 RU
off-rate (human TLR4/MD-2): 0.00035 L/s
on-rate (human TLR4/MD-2): 3.9×10^4 l/Ms
Kd (human TLR4/MD-2; read-out: apparent dissociation constant): 0.086 µM
Molecule: S100A9: recombinant S100A9, full-length sequence of native protein expressed in E. coli; SEQ ID NO: 1 [Compound S100A9]

binding to RAGE (in words) (immobilized RAGE): weak or no binding
Molecule: S100B: S100 protein, putative RAGE ligand [Compound S100B]

IC50, displacement of S100A9 binding to RAGE [1]: 0.0257 µg/mL
Molecule: heparan sulfate

IC50, displacement of S100A9 binding to RAGE [1]: 0.0404 µg/mL
Molecule: heparin
